Laboratory results: patent US20230110085A1

Legend:
[1] = target: purified human IgM (#16-16-090713-M, Athens Research & Technology) (human); assay: Western blot of DTT-reduced purified human IgM titrated 1250 to 4.8 ng/well
[2] = target: human IgG (IVIg, Gamunex) (human); assay: cell-based or functional assay
[3] = target: purified human IgM (#16-16-090713-M, Athens Research & Technology) (human); assay: cell-based or functional assay

detection limit (lowest IgM amount with visible band) [1] [ng/well]	Substance	cleavage on SDS-PAGE (full cleavage) [2] [µg/mL]	cleavage on SDS-PAGE (to scIgG) [2] [µg/mL]	cleavage on SDS-PAGE [3] [µg/mL]	digestion on SDS-PAGE gel [3] [µg/mL]
19	PE-conjugated donkey anti-human IgM (#IGM-PEC1, One Lambda) (antibody)				
	imlifidase (IdeS), immunoglobulin G-degrading cysteine protease of S. pyogenes (enzyme)	2	0.2	> 200	> 200
